Drawing on the RNAGym collection of RNA variant scans (doi:10.1093/molbev/msab373), this text covers reverse-splicing fitness for 83 variants.

Sequences and labels used below:
B1: Azoarcus group I ribozyme (parent)
chain: GUGCCUUGCGCCGGGAAACCACGCAAGGGAUGGUGUCAAAUUCGGCGAAACCUAAGCGCCCGCCCGGGCGUAUGGCAACGCCGAGCCAAGCUUCGGCGCCUGCGCCGAUGAAGGUGUAGAGACUAGACGGCACCCACCUAAGGCAAACGCUAUGGUGAAGGCAUAGUCCAGGGAGUGGCGAAAGUCACACAAACCGG

This data set covers variants of B1. The experiment in a line: reverse-splicing fitness (ratio to wild type); higher = more active; in vitro selection; Mg2+ level not given. In a few lines:
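An in vitro group I ribozyme library with randomized positions was T7-transcribed and gel-purified. In triplicate, 10 pmol RNA in EPPS pH 7.5 was reacted with 50 pmoles of a 30-nt RNA substrate for 1 h at 37 °C across several added MgCl2 levels (1–48 mM), then stopped with EDTA. Products were reverse transcribed from a substrate-complementary primer, PCR-amplified and sequenced (HiSeq 4000). Fitness is a variant's read proportion after selection over that before, normalised to wild type.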
Consider C82A A111G A120C C150A C169A U176A, for which the reverse-splicing fitness was determined as 0.0277.

As for C82G A120G A145G C150U U176A, the reverse-splicing fitness was 0.0107.

As to A111C C150U C169U, the reverse-splicing fitness turned out to be 0.0632.

With C82U A111U A120G A145U C169A U176G, the reverse-splicing fitness is 0.00391.

With A111G A120G A145G C150A, the reverse-splicing fitness is 0.0452.

C82A A120C C150A U176C: the reverse-splicing fitness was determined as 0.0248.

In the case of C82U A111U A120G A145U C169G U176G, the reverse-splicing fitness came to 0.00402.

In the case of A111C A120G A145G C150U U176A, the reverse-splicing fitness came out at 0.0273.

Turning to C82G A111G A145C C150A C169G U176G, the reverse-splicing fitness worked out at 0.00577.

Regarding C82U A111U A120G C169G U176A, the reverse-splicing fitness was 0.0203.

Turning to C82A C150A C169A, the reverse-splicing fitness worked out at 0.0109.

Regarding C82G A111U A145U C150U C169A U176A, the reverse-splicing fitness was determined as 0.0143.

C82G A120C C150G C169A: the reverse-splicing fitness amounted to 0.00942.

C82G A120C A145U C150G C169G U176C: the reverse-splicing fitness came to 0.00634.

Consider C82A A111U A120C A145U C150G C169U, for which the reverse-splicing fitness came out at 0.01.

As to C82A A111U A120G A145G C150U C169A U176C, the reverse-splicing fitness is 0.0165.

With C82A A111U A145U C150U C169A U176C, the reverse-splicing fitness came to 0.0108.

C82A A111U A145U C150U C169A U176A: the reverse-splicing fitness was 0.0148.

On to A145U C150A C169U, for which the reverse-splicing fitness is 0.0521.

With C82G A111G A120C A145G C150A C169G U176C, the reverse-splicing fitness was found to be 0.0237.

As for C82G A120G A145G C150A U176G, the reverse-splicing fitness is 0.00757.

Turning to C82A A111U A145G C150G, the reverse-splicing fitness amounted to 0.0263.

Consider C82G A111U A120G A145U U176A, for which the reverse-splicing fitness was 0.0138.

Turning to C82U A111G A120U A145U C150G U176G, the reverse-splicing fitness turned out to be 0.00254.

Turning to C82G A111G A120G A145U C150G C169U, the reverse-splicing fitness is 0.00943.

Turning to C82G A120G A145C C150G C169U U176C, the reverse-splicing fitness is 0.0125.

In the case of A120U C150A C169U U176C, the reverse-splicing fitness was 0.0195.

As to C82A A111C A145C C150U C169U, the reverse-splicing fitness was found to be 0.0121.

In the case of C82G A111C A120U A145C C150G C169A, the reverse-splicing fitness is 0.00373.

In the case of C82A A111C A120G A145C C150G C169G U176G, the reverse-splicing fitness was 0.00475.

On to A111U A120U A145C C169U U176C, for which the reverse-splicing fitness is 0.00989.

For the variant C82G A120U C150G C169G U176G, the reverse-splicing fitness was determined as 0.00218.

As for C82G A120U C150G C169G U176A, the reverse-splicing fitness stood at 0.00454.

For the variant C82G A120G A145G C150A, the reverse-splicing fitness is 0.0107.

C82A A111C A120G A145G C169A U176G: the reverse-splicing fitness worked out at 0.00509.

For the variant C82G A111C A120C A145U C169U U176A, the reverse-splicing fitness amounted to 0.0126.

For the variant C82G A120G A145G C150A C169G U176A, the reverse-splicing fitness came out at 0.0188.

For C82G A111G A120C C150G C169U U176C, the reverse-splicing fitness is 0.0135.

A111G A120U C150G C169U: the reverse-splicing fitness was found to be 0.0103.

For C82G A120U A145U C169G U176G, the reverse-splicing fitness was 0.00119.

On to C82U A145C C150G C169A U176G, for which the reverse-splicing fitness is 0.0049.

As to C82G A111C A145G U176C, the reverse-splicing fitness stood at 0.147.

As for C82A A111G A145U C169U U176A, the reverse-splicing fitness was 0.0124.

Consider C82A A111G A120G A145G C150U U176G, for which the reverse-splicing fitness amounted to 0.00788.

For the variant A120U A145U C169G, the reverse-splicing fitness was 0.256.

For the variant C82A A111C A120G C150U C169A U176C, the reverse-splicing fitness was determined as 0.0139.

As to C82U A120U C150G C169G U176G, the reverse-splicing fitness was found to be 0.0022.

Turning to C82G A120C A145C C150G U176C, the reverse-splicing fitness came to 0.0144.

Consider A111U A120C A145G C150A C169U U176C, for which the reverse-splicing fitness was determined as 0.022.

Regarding C82G A145G C150A C169G U176G, the reverse-splicing fitness came to 0.00515.

Take A111G A120G A145U C150A C169A U176G: the reverse-splicing fitness is 0.00504.

Regarding C82U A111U A120U C150G C169A U176G, the reverse-splicing fitness was 0.00272.

Turning to C82A A111U A120G A145U C150U C169A U176A, the reverse-splicing fitness came to 0.0139.

Regarding A111C A120C A145U C150U C169U U176C, the reverse-splicing fitness came to 0.0374.

With C82A A111G A120G A145U C150A C169A U176C, the reverse-splicing fitness stood at 0.0121.

Turning to A111C A120U A145U C150G C169A U176C, the reverse-splicing fitness turned out to be 0.0035.

A111U A120G C150G C169A U176A: the reverse-splicing fitness is 0.00974.

On to C150G U176G, for which the reverse-splicing fitness came out at 0.0576.

Regarding C82A A111G A120U A145C C150U C169A U176G, the reverse-splicing fitness came out at 0.00215.

On to C82U A111G A120G A145G C169G U176A, for which the reverse-splicing fitness is 0.0211.

For A145C C150U C169U U176G, the reverse-splicing fitness came out at 0.00838.

Turning to C82A A111G A120G C150U U176C, the reverse-splicing fitness came to 0.0156.

For C82U A111C A145G C150A C169A U176A, the reverse-splicing fitness was 0.0149.

C82G A111G A145U C150G U176C: the reverse-splicing fitness worked out at 0.0287.

With C82U A111U A120U C150U C169U U176G, the reverse-splicing fitness came to 0.00244.

Consider A111U A120C C150U U176G, for which the reverse-splicing fitness turned out to be 0.0321.

For C82G A111U A145C C150G C169A U176C, the reverse-splicing fitness came out at 0.00812.

Regarding C82A A111G A120C C150A C169G, the reverse-splicing fitness stood at 0.00973.

For the variant A111U A120G C150U C169G U176A, the reverse-splicing fitness came out at 0.0314.

With C82G A120C A145G C150U C169G U176C, the reverse-splicing fitness came to 0.0205.

As for C82G A111U A120G C150A C169A, the reverse-splicing fitness turned out to be 0.0117.

As for C82U A111C A120U A145G C169A U176A, the reverse-splicing fitness is 0.00295.

On to C82G A120G A145U C150U U176C, for which the reverse-splicing fitness came out at 0.0189.

Take A111U A120G A145U C150U C169G U176G: the reverse-splicing fitness is 0.00496.

Consider C82A A145G C150U C169A U176C, for which the reverse-splicing fitness was found to be 0.0166.

As for C82U A111G A120G A145G C150U C169G U176A, the reverse-splicing fitness worked out at 0.014.

For the variant C82A A111U A120G A145C C150G C169U U176C, the reverse-splicing fitness is 0.0117.

On to C82U A111G A145U C169G, for which the reverse-splicing fitness stood at 0.00731.

On to C82U A145G C150A C169U, for which the reverse-splicing fitness stood at 0.0093.

C82A A111U A145U C150U C169A: the reverse-splicing fitness came to 0.00985.

Regarding C82A A145C C169U, the reverse-splicing fitness amounted to 0.0141.

Turning to C82A A145C C169A, the reverse-splicing fitness worked out at 0.00701.

Take C82G A111G A145U C169G: the reverse-splicing fitness was determined as 0.0101.
